According to the DeepSol protein solubility set:

Assay: soluble on expression in E. coli; label from the status in PepcDB or PDB records
In the case of “MYAGINYDQLFGTEQVRERQLPLHSSQAQHFLNEVKPILDNRCVVCHACYDAPCQLKMTSAEGIDRGASKALVYQGTRLTAATPTRLYEDAQLTQEWRAAGFHPVLNERNQTAQANLDAGVMARLLMQKERHPLPQQDQLQGFDFSIDREQTCPTINEMDHFEQVNPNWGMPFGMPNLSPKEYTTLLSWLQEGAVMNQALPLSAQEQALVTEYEALLNHSSRKNQLAARYIYEHLFLSHLYFSEIAQERPRFFKLIRSSTPPGEPVKRIVTRRPYDDPGVERVYYRLVPEQETIVDKTHMPFALNKQRIANWKLWFIDADYEVAELPSYRPDIAANPMSAFIDLPVKARFKFLLDNAQNTVMAFIKGPVCRGQLALNVINDRFWVFFLDPEKADLPEVNEFYRSQVNNLKLPAEQENTALPLSNWVRYSLQQSRYLEAKSEFINQWFKNGTHLTTDIIWDGAGINPNAALTIFRHFDSASVVQGLVGEPPKTAWIMDYALLERIHYLLVAGFDVYGNFGHQLITRMFMDFLRMEGESNFVALLPRDMRHQELSSWYQNQSVQFSDFLQRNVKPFDQPTSVNYVTDNPKQELFAKLRKQVQSVLSDRYVITQTGFKAEHEFALRQIDHLRGEGLLPIPQLMMLMIESEQGKPQLFTLIHNNAHTNISSLFDEQNNRDPKNDNLTLVRGVVGSYPSAYLTLKENQIPELYQRLAAMKSEQDYVALLDRFAVRRSSPEFWAFSDLVHQWYRQDQPIEFGLLDYNRFENRLEHHHHHH”, the “soluble on expression in E. coli” value is reported as “not soluble”. In the case of “MVVTCPKCGAKNRLGTPPPGQVPVCGACKTPLPWVVEADEKGFAQEVAGAPLTLVDFFAPWCGPCRLVSPILEELARDHAGRLKVVKVNVDEHPGLAARYGVRSVPTLVLFRRGAPVATWVGASPRRVLEERLRPYLEGR”, the “soluble on expression in E. coli” value is reported as “soluble”. In the case of “MGSDKIHHHHHHSTPTEFKRPSLKVLFGSFVGEYPGIIAQEKGFFKAQGVDVELIHKRYIQLEQANFSAGKYDGMTSSLGNLIILSAINLDIQGVIVIDESTGADVVVAQPQIKTVADLKGKKLGANLGGFSELFITEMLKTNNLNSNDVNLVRLEALKIPQNLKKNFIQAGHTWEPYLSEAMKIGGNILFTSKQTPGLILDLMIFRGDVIRDRPGDIRAFVQGWLQASEYWKENVQEGNTIISKALKIPSNTISLEGISLTSLDENQNLFQFSNPNSIDKIAKVYADFFIRAGNLTRIPELKSLFNSSFLNPAS”, the “soluble on expression in E. coli” value is reported as “not soluble”. With “MGSDKIHHHHHHMLKVSDLTVGNNFVHNVSFEVNPGERVGIIGESGSGKSLTALSIMGLTDLPTTGQITFNGKPSATFRGTRIAMVFQEPMSALNPLMRIGRQIEEMMTLHGASKKDARARLKSLLIDVSLPERTASAYPHELSGGQRQRALIAMALANDPDLLICDEPTTALDVVVQKQIVDLLLRLTKERGTALLFITHDLGLIARTCERLLVMKSGETVERGDTEAILRSPAHSYTQQLLDASILDQPEIASDSGAPVVIDVEEASKSFKETTALHKVSLAVRKGDLLGIVGGSGSGKTTLLKLIAGLDKPTTGTVAVTGGVQMVFQDPQSSLNPRMKIKDIVAEPLLGWNAAEKTTRVAEVITQVGLSPDVLDRYPHEFSGGQRQRISIARALAIKPAILLADEPVSALDVSVRKQVLDLLQQLVEEYGITLVFVSHDLAVVRHLCTTVWVMEQGRVLEQGPIDSVYDHPQTEYTKELLDAVPRLSL” the “soluble on expression in E. coli” value was “not soluble”. With “MLKRRRFHVHFGWILFHCQDCMRHEEGSEESESSFTEMVAEELKLREAQAQEDEWRADRLLLDAKKAASQYQKEADKCSMGMETCELAREKAEAALDEQRRLSYMWELRARQGGWKEGTVASDVI” the “soluble on expression in E. coli” value was “soluble”. In the case of “MYIQILGSAAGGGFPQWNCNCVNCAGFRDGSLRAQARTQSSIALSDDGVNWVLCNASPDIRAQLQGFAPMQPGRALRDTGISAIVLMDSQIDHTTGLLSLREGCPHQVWCTDMVHEDLSTGFPLFEMLKHWNGGLNWNRIELQGSFVIPACPNLRFTPFPLRSAAPPYSPHRFDPHPGDNIGLLVEDTRTGGKLFYAPGLGKVDEALAEKMRDADCLLVDGTMWDDDEMQRRGVGTRTGREMGHLAQNGPGGMLDVLEGFPEQRKVLIHINNTNPILDEDSPERAELVRRNVEVAFDGMSIELLEHHHHHH”, the “soluble on expression in E. coli” value is reported as “soluble”. In the case of “MSLSYTKIFGLGGVHEIGKSTLVIHHEKSIAIIDAGIKFADSSTTGLHGIIPNYSYLKKHEDQIEGIFVTHGHEDHIGGIIYLLQQVKINKIFAPKIAIEYLKYKLEDRGLRIKVEFIEIKKDDTHHLGSLVVDFWTAQHSIPDAFGIRVKTPDGSVLCTGDFRIDYRPIGNYTDFSKLEQIGKEGLTLLLSDSTNAMRPNHSPSENDILKDIEKIMLAAKRKIIITTFASNLIRIKVIIELAEKLNKKIAVFGRSMVNGIAIGKELGYIKTPDSSFIDKKSIDQYEDKDIVILTTGSQGEQLAALSRMSYEKHPQVSIRKNDTIIFSSSPIPGNKMKIELLINRLYKLGAIIKENGVDGYLHTSGHAYQEEHEKIFSIAKPKYFFPYHGEYRMSVVHGQTAIRSGVKPENVIIPGIGEVVKMEEGHHHHHH”, the “soluble on expression in E. coli” value is reported as “not soluble”. For “MGSDKIHHHHHHMEHLHRKQITNTFTETFPGDLSMNNTTRQTPGVLYCSVLPTPVHHPQLLAWSADVAEMLGLESPVPEDVLILGGNTVNPTMKPYASCYAGHQFGNWAGQLGDGRAISLGFCSGKDSMEYELQLKGAGPTPYSRNSDGRAVLRSSLREYLMSEAMHYLGVPTTRALSLVSTGDAVLRDMFYNGHAAYEPGAVVLRVAPSFIRFGNFEILAERNNRDLSQQLCDWVITRYYPEIRGEDRVVQLFQAVAERTADMVVQWLRVGFVHGVMNTDNMSILGVTIDYGPYSFVDEYDARFTPNTTDLPGRRYAFGNQAAVAYWNLGRLANALAFLVPETDKLVAVLKNYQDVYETKYYTMMANKLGFDALREDDRLLIDSFEEMLRTVKPDMTMFYQLLIDLPADPGTAADVKQFFQSCFYTEADEALLHTCIAAYSKRIKTNTCSKEVSAEKMRAANPRFVLRNYILHEAIEKLEKGDDALLKKLEEYIKQPYSKNADEYFIKRPDWAAQKAGCSMLSCSS”, the “soluble on expression in E. coli” value was “not soluble”. With “MSGNQNGENVQQKKEKMCSIGETIYTWTQNKHATTYVGTYTKAFFSGEVCREIREHDEFLGMSFSSFF” the “soluble on expression in E. coli” value was “not soluble”. For “GPGSMQSNAPFDPEREALRNEAIKKTVERNVTQARLKKVNDDVKLQQRELDKVEDQVNALLSIGHYVGEVLKRVDEERFIVKSISGARHLVGYRKSIKPEKLKFGARVALEITTFTIVKVLPREVDPQVYSMQYMSSDKDVSFQDIGGLQPQMRQMREVIELPLTNPELFVRVGIAPPKGVLLYGPPGTGKTLLAKAIAANVDAAFLKIVASSIVDKYIGESARVIREMFAYAREHEPCIIFIDEVDAIGSKRIEGSSSDREIQRTLMELLNQMDGFDKLGKVKVIMATNRPDTLDAALMRPGRLDRKIEIPLPNEAGRLDVLRIHSAKITKKGDIDFESVVKLSEGFNGADLRNVCTEAGMFAIRAGRDYVENSDFNKAVRKVADMKRLEGTAHQYSDQ”, the “soluble on expression in E. coli” value was “not soluble”. For “MAKFTVGQDPVKGLTELKAYMEEQISKIKKATSEQEIDQLLVEVLNEYDDKMGSLSKIYKGGNEQVEQLKIDVRKLYEPLRDQFSYNHPQTLVGEFQTKLEEQHKRAEEEKRKLEKQREEQLKLEKQLEEEKQKLAKQSEVEEKPKLENQQEENITQALQKVDGIIQELTLKIDRVDQHQYKKAHDTANTLLQSLIAARDEYERDLRANEFSQELAGRKFKLACQDAVKIAKPVLEKDLGWGDYLKNLLKCLGNAVITVFTFGYQQGFFAYARPDSAKAVEKAEEDLGLRQAASSPK”, the “soluble on expression in E. coli” value was “not soluble”. With “GPGSMRKFCHFMANCWNSARSHATYGAVPLTHSQVTSVYATDGGKVDELGLLELVEERIFSWKLNKWEMRIPPNLPNDQKELIRQEQENLKQILSGWRKCFGALNADILQISSLTGVPKEVVREKNRTWLQEEVAKLRWMGEVNKAALLRDAFMRLEAFGSRDFMFMERLCCIYGLARQGTFDEAFTNYITEDPVTNDIFVDERNPFKELVAHIVRNYSQIDIIYDFLGFNYSEGYRSSLRRYMEYLQCKTAENVRASGRLVTGDKGEHNILFDYCVSRESLVSGDSCQGIIDFLYINGNDVTLIIIASDNPWLRNRQLPHRRQMEGIARRVCFVLGIPPSEVRIRNLLLPPTYLDKGSIVRLNDIVFRLSNEQSNLLIPWLTNYNKELDPKDVDYTALAKTTNEEEWLTL” the “soluble on expression in E. coli” value was “not soluble”. For “SNAMQVITSVKEAKQIVKDWKSHQLSIGYVPTMGFLHDGHLSLVKHAKTQDKVIVSIFVNPMQFGPNEDFSSYPRDLERDIKMCQDNGVDMVFIPDATQMYLKNFSTYVDMNTITDKLCGAKRPGHFRGVCTVLTKFFNILNPDIVYMGQKDAQQCVVVRHMVDDLNFDLKIQICPIIREEDGLAKSSRNVYLSKEERKASLAISQSIFLAEKLVREGEKNTSKIIQAMKDILEKEKLIKIDYIELVDFNTMENIENITDNVLGAVAAFVGKTRLIDNFLVQGLK”, the “soluble on expression in E. coli” value was “soluble”. With “MAKALEQPFDVANIPGPKMATLLEKGKPVANMIKKAKRPLLIVGPDMTDEMFERVKKFVEKDITVVATGSAITRFIDAGLGEKVNYAVLHELTQFLLDPDWKGFDGQGNYDLVLMLGSIYYHGSQMLAAIKNFAPHIRALAIDRYYHPNADMSFGNLWKKEEDYLKLLDEILAEL” the “soluble on expression in E. coli” value was “soluble”. In the case of “GPGSMSHNVRPSRYAVSQSKARIFVGQLEPYVTEQDLYPVFSCYGKILHLNIVRHSTTVTPNEERRIPTAFVWYETTTEADAAIAALHNVFTFSSPDEEENKVRYIQVSYADKSPECTPWGRWQKTQAEIMRRTNPSGTGTGSNMPGQYSHITGGGPSTYSSSALNNDGGFTVSATGPAIRSSQSSGDISSMRYPRNPARGLRSMAPHIDHPEVQYYSSYDNLYNLGNRNQLYSMGGAANSMMGYTKHRGMPPHESTSSGDLGRGSTSSFWNMSEEVKKNTAANPNRFRHTARYTAPEPDEDLIMAAPTFTVTSGP”, the “soluble on expression in E. coli” value is reported as “not soluble”. In the case of “GGSHMKSYEIALIGNPNVGKSTIFNALTGENVYIGNWPGVTVEKKEGEFEYNGEKFKVVDLPGVYSLTANSIDEIIARDYIINEKPDLVVNIVDATALERNLYLTLQLMEMGANLLLALNKMDLAKSLGIEIDVDKLEKILGVKVVPLSAAKKMGIEELKKAISIAVKDKKTAEIKYPNFEPYIKKIT”, the “soluble on expression in E. coli” value is reported as “soluble”. With “MGSDKIHHHHHHVSKPHYKTTNWKQYNQALINRGSLTFWIDEDAIAKWKAKVEQPKKGRPRVFSDLAITTALMVKRIFSMPLRALQGFINSVFKLGDIPLSCPHYTCISKRAKTVNIAFKTKTRGAIKHLAIDSTGLKVYGEGEWKVKKHGTDGKRRVWRKLHIAVDTHSHEIIAAELSLSGVTDAEVMPNLLKQTHRKIRNISGDGAYDTKACHEAVRRKRALVLIPPREGAALWEQGHPRNLAVSWQQLHGSNKQWKKRYGYHRRSISETAMYRIKQLLGGTLSMRNYNAQVGETYAMIRALNKLTGLGMPETHYVA” the “soluble on expression in E. coli” value was “not soluble”. For “MGSDKIHHHHHHMLLEIRHVTQYHYERPVRESLMELWMQPQKTARQRLVSFELDLNPAAQVFSYADSFGNAVYHFDVPQPHDNLTIIARSAVETESPGERPDQLDMGEWDRLRSEFVRGECFDFLRPHGFVRTTEALQTFINEHDLDALKRRDPLTAVRSLSETIYGAFEYQPGVTDADSPIDLTLSAGRGVCQDFAHIMLAVCRGWGVPARYVSGYLFTDRDAGDRSDPDATHAWVEVFLPSLRWVGFDPTNNMMAGERHVAVAVGRDYADVTPSRGVYKGDAESQLAVGVSVRRARAALAEPEFLRMARPSFAGGRRRHDTALREELHQQQQQQQ”, the “soluble on expression in E. coli” value was “not soluble”.
